Data reported in article PMC5098251 (Scientific Reports, 2016).

Tests used:
[1] = target: T1, recombinant human FasR (Homo sapiens, UniProt P25445); test: BLI; Octet Red384; recombinant human FasR; 1:1 Langmuir model; at least in duplicate; who was immobilised is not told (Supplementary Protocols 8-10)
T1 construct: Fas receptor (FasR, CD95), human, recombinant; The FasR of the BLI and SPR experiments; Details are in Supplementary Protocols 8-10; also called recombinant FasR

[2] = target: T2, FasR-Fc (Fc-fused Fas receptor) (Homo sapiens, UniProt P25445); test: on-bead binding assay read by flow cytometry (Bead Surface Display); SNAP-scFv-HA made by in vitro transcription/translation and held on streptavidin beads through BG-DNA anchors; beads incubated 1 h at room temperature with FasR-Fc (1 nM unless stated; 1, 10 and 30 nM in Fig. 2B), then with DyLight488-labelled goat anti-Fc; 1.5% marvel in PBS, washes with PBS and 0.05% Tween 20; details: one partner purified
T2 construct: Fas receptor (FasR, CD95), human; also called Fas-Fc; CD95; source: bought: R&D Systems

[3] = target: T2, FasR-Fc (Fc-fused Fas receptor); test: on-bead equilibrium titration read by flow cytometry (Bead Surface Display); apparent; Fas-Fc titrated against beads displaying SNAP-scFv-HA; normalised median fluorescence fitted to a saturation binding curve; details: one partner purified
[4] = target: T1, recombinant human FasR; test: BLI; Octet Red384; recombinant human FasR; 1:1 Langmuir model; at least in duplicate; who was immobilised is not told (Supplementary Protocols 8-10); details: both partners purified

T2 sequence (P25445 26-173): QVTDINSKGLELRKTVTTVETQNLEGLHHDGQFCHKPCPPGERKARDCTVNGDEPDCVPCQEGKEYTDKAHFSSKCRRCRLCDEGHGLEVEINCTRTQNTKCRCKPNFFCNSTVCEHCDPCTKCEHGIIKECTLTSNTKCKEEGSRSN
T1 sequence (P25445 26-335): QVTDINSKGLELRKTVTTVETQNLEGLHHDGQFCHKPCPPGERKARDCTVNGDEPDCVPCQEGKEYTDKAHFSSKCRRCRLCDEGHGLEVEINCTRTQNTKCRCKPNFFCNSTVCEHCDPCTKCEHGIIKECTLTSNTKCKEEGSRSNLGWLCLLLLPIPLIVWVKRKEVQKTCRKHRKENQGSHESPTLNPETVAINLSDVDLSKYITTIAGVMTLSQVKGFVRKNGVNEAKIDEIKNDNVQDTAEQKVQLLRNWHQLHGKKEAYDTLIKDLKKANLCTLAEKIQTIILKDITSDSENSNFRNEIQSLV

Binder	Kd [1] [nM]	koff [1] [s⁻¹]	kon [1] [M⁻¹ s⁻¹]	fold increase in affinity over the parent scFv E09 (Kd) [4] [fold]	further results
A07a scFv (scFv, V domains shown) VH: QLQLQESGPGLVKPSETLSLTCTVPGASISANSYYGVWVRQSPGKGLEWVGSIAYRGNSNSGSTYYNPSLKGRATVSVDTSKNQVSLRLTSVTAADTALYYCARRQLLDDGTGYQWAAFDNWDQGTMVTVSS VL: QSVLTQPPSVSEAPRQTVTISCSGNSFNIGRYPVNWYQQLPGKAPKLLIYSNNLRFSGVSDRFSGSKSGTSASLAIRDLLSEDEADYYCSTWDDTLKGWVFGGGTKVTVL	0.4	5.6e-05	162000	–	–
SNAP-A09a scFv-HA (scFv, V domains shown, numbers count on: Kabat numbering; scFv linker, as in m6; On-bead form of m13; not shown: SNAP-tag, N-terminal, kept; HA, C-terminal, kept) VH: QLQLQEPGPGLTKPSETLSLTCTVPGASISADSYYGVWVRQSPGKGLEWVGSIAYRGNSNSGSTYYNPSLKSRATVSVDTSKNQVSLRLTSVTAADTALYYCARRQLLDDGTGYQWAAFDVWGQGTMVTVSS VL: QSVLTQPPSVSEAPRQTVTISCSGNSFNIGRYPVNWYQQLPGKAPKLLIYHNNLRFSGVSDRFSGSKSGTSASLAIRDLLSEDEADYYCSTWDDTLKGWVFGGGTKVTVL	–	–	–	–	fold increase of MFS over E09 [2]: > 2 fold
SNAP-E09 scFv-HA (scFv, V domains shown, VH: as the VH of m6 (E09); scFv linker, as in m6; VL: as the VL of m6 (E09); 47 kDa fusion; The parent vector pIVEX-SNAP-GFP holds the R30I mutant of the SNAP-tag; also called SNAP-scFv-HA; parent; source: in vitro translated (PURExpress), captured on BG-DNA-coated streptavidin beads; not shown: SNAP-tag, N-terminal, kept; HA, C-terminal, kept) VH: QLQLQESGPGLVKPSETLSLTCTVSGASISANSYYGVWVRQSPGKGLEWVGSIAYRGNSNSGSTYYNPSLKSRATVSVDTSKNQVSLRLTSVTAADTALYYCARRQLLDDGTGYQWAAFDVWGQGTMVTVSS VL: QSVLTQPPSVSEAPRQTVTISCSGNSFNIGRYPVNWYQQLPGKAPKLLIYYNNLRFSGVSDRFSGSKSGTSASLAIRDLLSEDEADYYCSTWDDTLKGWVFGGGTKVTVL	–	–	–	–	Kd [3]: 4.3 ± 0.3 nM; fold signal increase over the background (FasR at 1 nM) [2]: > 1250 fold
E09 scFv with the single mutation VH S25P (scFv, V domains shown, numbers count on: Kabat numbering; scFv linker, as in m6; VL: as the VL of m6 (E09); Made by site-directed mutagenesis of E09 in pCantab6) VH: QLQLQESGPGLVKPSETLSLTCTVPGASISANSYYGVWVRQSPGKGLEWVGSIAYRGNSNSGSTYYNPSLKSRATVSVDTSKNQVSLRLTSVTAADTALYYCARRQLLDDGTGYQWAAFDVWGQGTMVTVSS VL: QSVLTQPPSVSEAPRQTVTISCSGNSFNIGRYPVNWYQQLPGKAPKLLIYYNNLRFSGVSDRFSGSKSGTSASLAIRDLLSEDEADYYCSTWDDTLKGWVFGGGTKVTVL	–	–	–	4	–
E09 scFv with the single mutation VL Y50S (scFv, V domains shown, VH: as the VH of m6 (E09); scFv linker, as in m6; numbers count on: Kabat numbering; Made by site-directed mutagenesis of E09 in pCantab6) VH: QLQLQESGPGLVKPSETLSLTCTVSGASISANSYYGVWVRQSPGKGLEWVGSIAYRGNSNSGSTYYNPSLKSRATVSVDTSKNQVSLRLTSVTAADTALYYCARRQLLDDGTGYQWAAFDVWGQGTMVTVSS VL: QSVLTQPPSVSEAPRQTVTISCSGNSFNIGRYPVNWYQQLPGKAPKLLIYSNNLRFSGVSDRFSGSKSGTSASLAIRDLLSEDEADYYCSTWDDTLKGWVFGGGTKVTVL	–	–	–	4	–
R4aS scFv (scFv, V domains shown) VH: QLQLQESGPGLVKPSETLSLTCTVPGASISANSYYGVWVRQSPGKGLEWVGSIAYRGNSNSGSTYYNPSLKSRATVSVDTSKNQVSLRLTSVTAADTALYYCARRQLLDDGTGYQWAAFDNWDQGTMVTVSS VL: QSVLTQPPSVSEAPRQTVTISCSGNSFNTGRYPVNWYQQLPGKAPKLLIYSNNLRLSGVSDRFSGSKSGTSASLAIRDLLSEDEADYYCSTWDDTLEGWVFGGGTKVTVL	0.38	4.5e-05	117000	–	–
